Like-named read-outs stand apart in the source and are kept apart here.
B1: 5'UTR RNA (ssRNA)
RNA: AUACUAACGCCAUGGCUAGGCGCUUUCUGCGUGAAGACAGUAGUUCCUCACAGGGGAGUGAUUCAUGGCGGAGUGUCGCCCCU
B2: Synthetic RNA (structured_RNA)
RNA: AGGGUUUUUUUUUUUAUUAUUUAUUCUUUAUUUUUCUUGCGUAGUUUUCUACG

Key:
[1] = target: T1, NS5B(Δ21)-FlAsH-His (RNA-dependent RNA polymerase) (Hepatitis C virus genotype 2a, UniProt Q99IB8 2443-3012); assay: EMSA
[2] = target: T1, NS5B(Δ21)-FlAsH-His (RNA-dependent RNA …); assay: EMSA; remark: listed apart in the source

Binder	binding result [1]	binding result [2]
B1	binds	–
B2	–	binds
